# Article PMC7504044 (International Journal of Molecular Sciences, 2020)
# B1: GST–emerin (full-length emerin fused to GST) (natural protein, UniProt P50402 1-254, looked up)
# chain: MDNYADLSDTELTTLLRRYNIPHGPVVGSTRRLYEKKIFEYETQRRRLSPPSSSAASSYSFSDLNSTRGDADMYDLPKKEDALLYQSKGYNDDYYEESYFTTRTYGEPESAGPSRAVRQSVTSFPDADAFHHQVHDDDLLSSSEEECKDRERPMYGRDSAYQSITHYRPVSASRSSLDLSYYPTSSSTSFMSSSSSSSSWLTRRAIRPENRAPGAGLGQDRQVPLWGQLLLFLVFVIVLFFIYHFMQAEEGNPF
# notes: emerin, full-length; also called pGST–emerin; source: E. coli BL21, purified (glutathione-Sepharose)
# Experiments:
# [1] = biological target: emerin (Caenorhabditis elegans) (UniProt O01971); settings: cited from earlier work
# SPR = biological target: the molecule itself; experiment: SPR
# [2] = biological target: the molecule itself; experiment: SPR; GST–emerin coupled by EDC–NHS to polyethylene glycol/carboxyl sensor slides (Reichert SR7500DC); five increasing concentrations of analyte in PBST at 40 µL/min, 150 s association, 150 s dissociation, no regeneration
Molecule,Kd [1] [nM],koff (SPR) [s⁻¹],Kd [2] [nM]
emerin (from UniProt O01971),14,,
B1,,0.00154,1.87
